Reference: article PMC5031558 (2016)

T1: p97_PIM (Homo sapiens (Human), UniProt P55072)
T1 chain: TEDNDDDLYG

T2: SPATA2_PIM (Homo sapiens (Human), UniProt Q9UM82)
T2 chain: DVDLYTDSEPR

T3: OTULIN_PIM (Homo sapiens (Human), UniProt Q96BN8)
T3 chain: AEHEEDMYRAADEIEKEKE

B1: SPATA2_PUB (protein)
chain: MDTKFKDDLFRKYVQFHESKVDTTTSRQRPGSDECLRVAASTLLSLHKVDPFYRFRLIQFYEVVESSLRSLSSSSLRALHGAFSMLETVGINLFLYPWKKEFRSIKTYTGPFVYYVKSTLLEEDIRAILSCMGYTPELGTAYKLRELVETLQVKMVSFELFLAKVECEQMLEIHSQVKDKGYSELDIVSERKSSAEDVRGCSDALRRRAEGRE
B2: UBXN6_PUB (protein)
chain: STDPVAASIMKIYTFNKDQDRVKLGVDTIAKYLDNIHLHPEEEKYRKIKLQNKVFQERINCLEGTHEFFEAIGFQKVLLPAQDQEDPEEFYVLSETTLAQPQSLERHKEQLLAAE
B3: PNGase_PUB (protein)
chain: GSASPAVAELCQNTPETFLEASKLLLTYADNILRNPNDEKYRSIRIGNTAFSTRLLPVRGAVECLFEMGFEEGETHLIFPKKASVEQLQKIRDLIAIER
B4: HOIP_PUB (protein)
chain: MPGEEEERAFLVAREELASALRRDSGQAFSLEQLRPLLASSLPLAARYLQLDAARLVRCNAHGEPRNYLNTLSTALNILEKYGRNLLSPQRPRYWRGVKFNNPVFRSTVDAVQGGRDVLRLYGYTEEQPDGLSFPEGQEEPDEHQVATVTLEVLLLRTELSLLLQNTHPRQQALEQLLEDKVED

Biological target: T1, p97_PIM
Assay: FP, FITC-Ahx peptide

Kd [µM] | Binder
> 100 | B1
27.1 | B2
2.1 | B3
10.2 | B4

Biological target: T2, SPATA2_PIM
Assay: FP, FITC-Ahx peptide

Kd [µM] | Binder
> 100 | B1
> 100 | B2
> 100 | B3
0.36 | B4

Biological target: T3, OTULIN_PIM
Assay: FP, FITC-Ahx peptide

Kd [µM] | Binder
> 100 | B1
